As a reminder, the Kd is the equilibrium constant for the complex coming apart. Low values mean a tighter complex, high ones a looser complex.

Several values for one entry are separate records, joined by “and”; a condition that tells them apart may be missing. Equal values may be shown once. Bridges are numbered along the chain shown (N, C = ends). Where no end group is shown, it is not given here. [ ]: non-standard residue; d: D form. R8 = C=CCCCCCC[C@@](C)(N)C(=O)O; S5 = C=CCCC[C@](C)(N)C(=O)O

Assay [1] has as its target monomeric N protein NK170AR185A-His (N^mono) (human respiratory syncytial virus (HRSV)) (UniProt P03418). Nature of the assay: SPR, GST-P[1-40] mutant captured on anti-GST antibody, N^mono injected.
For assay [2] the target is unchanged. Nature of the assay: SPR (Proteon XPR36): GST-P[1-40] mutant captured on anti-GST antibody, N^mono injected, steady-state fit.
Assay [3] shares this target. In words: SPR (ProteOn XPR36), GST-P[1-40] captured on anti-GST antibody, N^mono injected, steady-state fit; lower end of the range 4-5 µM.
Assay [4] has the same target. In words: SPR (ProteOn XPR36), GST-P[1-40] captured on anti-GST antibody, N^mono injected, steady-state fit; upper end of the range 4-5 µM.
For assay [5], the target named is RSV nucleoprotein N, wild type (N^0 form in cells) (human respiratory syncytial virus (HRSV)) (UniProt P03418). In words: cell-based or functional assay.
In assay [6] the target is T1, monomeric N protein NK170AR185A-His (N^mono) (human respiratory syncytial virus (HRSV), UniProt P03418 1-391).
T1 construct: also called NK170AR185A-His protein; recombinant N^mono
T1 sequence: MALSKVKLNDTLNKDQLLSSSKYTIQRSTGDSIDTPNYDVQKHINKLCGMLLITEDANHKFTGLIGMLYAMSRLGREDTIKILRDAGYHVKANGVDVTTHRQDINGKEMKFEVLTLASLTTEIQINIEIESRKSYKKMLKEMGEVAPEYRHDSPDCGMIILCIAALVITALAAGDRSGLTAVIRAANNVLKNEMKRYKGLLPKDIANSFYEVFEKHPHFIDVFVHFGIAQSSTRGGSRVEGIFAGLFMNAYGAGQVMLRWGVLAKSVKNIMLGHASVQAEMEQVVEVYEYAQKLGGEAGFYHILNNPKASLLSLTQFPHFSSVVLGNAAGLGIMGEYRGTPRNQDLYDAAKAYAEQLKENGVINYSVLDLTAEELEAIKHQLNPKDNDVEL
In words: fluorescence polarization competition: stapled peptide titrated against FAM-P(1-40) on recombinant N^mono. For orientation: Fluorescence polarisation rises when a labelled molecule tumbles more slowly, as on binding a larger partner.

In assay [1], “GST-P[1-40] E2A (from UniProt P12579 1-40)” gave a Kd of 1.9 µM and a fold increase of affinity against wild type GST-P[1-40] of 2 fold.
Regarding “GST-P[1-40] E7A (from UniProt P12579 1-40)”, the Kd in assay [1] is > 10 µM and < 20 µM; in assay [2] it was 11.1 µM.
For the molecule “GST-P[1-40] E22A (from UniProt P08515 1-218; P12579 1-40)”, the Kd in assay [2] worked out at 7.49 µM.
For “GST-P[1-40] F4A (from UniProt P12579 1-40)”, the Kd in assay [1] is > 10 µM and < 20 µM; in assay [2], 13.8 µM.
In assay [1], “GST-P[1-40] F8A (from UniProt P12579 1-40)” came in with a Kd of 41 µM.
Take “GST-P[1-40] G10A (from UniProt P12579 1-40)”: the equilibrium dissociation constant (Kd) in assay [1] was > 5 µM and < 10 µM; in assay [2], 5.1 µM.
Turning to “GST-P[1-40] G26A (from UniProt P12579 1-40)”, in assay [1], the Kd stood at 2.6 µM and the fold increase of affinity against wild type GST-P[1-40] turned out to be 2 fold.
For the molecule “GST-P[1-40] H9A (from UniProt P12579 1-40)”, the Kd in assay [2] was found to be 4 µM.
Regarding “GST-P[1-40] I24A (from UniProt P12579 1-40)”, the Kd in assay [1] was > 10 µM and < 20 µM; in assay [2], 16.4 µM.
“GST-P[1-40] K3A (from UniProt P12579 1-40)” displayed a Kd in assay [2] of 3.49 µM. That is a single-digit micromolar value.
Consider “GST-P[1-40] K25A (from UniProt P12579 1-40)”, for which the Kd in assay [1] was > 5 µM and < 10 µM; in assay [2], 7.77 µM.
Consider “GST-P[1-40] L21A (from UniProt P08515 1-218; P12579 1-40)”, for which the Kd in assay [2] was determined as 17.6 µM. This counts as double-digit micromolar.
On the same count and under the same terms, then “GST-P[1-40] P6A (from UniProt P12579 1-40)”, with 4.89 µM.
“GST-P[1-40] S23A (from UniProt P12579 1-40)”: the Kd in assay [2] is 4.5 µM.
Turning to “GST-P[1-40] wild type (from UniProt P12579 1-40)”, the figures for the equilibrium dissociation constant (Kd) in assay [3] and in assay [4] were over 4 µM and under 5 µM, respectively.
As for “RSV phosphoprotein P E7A (full length, plasmid pP) (from UniProt P12579 1-241)”, the luciferase activity in the HRSV minigenome replication assay in assay [5] came to 50 % reduction.
In assay [5], “RSV phosphoprotein P F4A (full length, plasmid pP) (from UniProt P12579 1-241)” returned a luciferase activity in the HRSV minigenome replication assay of 50 % reduction and a polymerase activity in the HRSV minigenome replication assay of 80 % reduction.
As for “RSV phosphoprotein P F8A (full length, plasmid pP) (from UniProt P12579 1-241)”, in assay [5], the luciferase activity in the HRSV minigenome replication assay is 50 % reduction and the polymerase activity in the HRSV minigenome replication assay amounted to 80 % reduction.
In assay [5], “RSV phosphoprotein P F20A (full length, plasmid pP) (from UniProt P12579 1-241)” registered a luciferase activity in the HRSV minigenome replication assay of 50 % reduction and a polymerase activity in the HRSV minigenome replication assay of 80 % reduction.
As for “RSV phosphoprotein P G10A (full length, plasmid pP) (from UniProt P12579 1-241)”, in assay [5], the luciferase activity in the HRSV minigenome replication assay was 50 % reduction and the polymerase activity in the HRSV minigenome replication assay turned out to be 80 % reduction.
Consider “RSV phosphoprotein P I24A (full length, plasmid pP) (from UniProt P12579 1-241)”, for which the luciferase activity in the HRSV minigenome replication assay in assay [5] is 50 % reduction.
In turn, “RSV phosphoprotein P K25A (full length, plasmid pP) (from UniProt P12579 1-241)” yielded a luciferase activity in the HRSV minigenome replication assay in assay [5] of 50 % reduction.
On to “RSV phosphoprotein P L21A (full length, plasmid pP) (from UniProt P12579 1-241)”, for which the luciferase activity in the HRSV minigenome replication assay in assay [5] was determined as 50 % reduction.

B1: HEVS108 (peptide)
stapled peptide: Ac-EDANNKAT[R8]FLESIK[S5]KFAS
modifications: staple 9-16
In the case of B1, the binding result in assay [6] is recorded as “no binding”.

(Values after patent US20170152292A1 (FONDATION THE ARK, published 2017).)
